Test results taken from patent US11155602B2, “Polypeptides targeting HIV fusion” (priority 2015, dated 2021).

B1: 108 (protein)
chain: MASTSGVSDVPRDLEVVAATPTSLLISWDAPAVTVLEYQIDYHPAAVWHALQRFTVPGSKSTATISGLKPGVHYKISVTATTHADNESIMWHPISIYYRTEGSGSHHHHHH
modifications: Adnectin
B2: 102 (protein)
chain: MASTSGSSPYLMPYDLEVVAATPTSLFIRWYGSASSIVKFRITYGETGGNSPVQEFTVGGTQLHATISGLKPGVDYTITVYAVHFEHKYSELWIGHPISINYRTEGSGSHHHHHH
modifications: Adnectin
B3: 104 (protein)
chain: MASTSGTHWFYSIPHDLEVVAATPTSLTIAWEPPHHTAMGYRITYGETGGNSPVQEFTVPGGYTTAYISGLKPGVDYTITVYAAYYEREYSEHWISHPISINYRTEGSGSHHHHHH
modifications: Adnectin
B4: 96 (protein)
chain: MGVSDVPRDLEVVAATPTSLLISWDAPAVTVQSYHIQYWPLGSYQRYQVFSVPGSKSTATISGLKPGVEYQIRVYAETGGADSDQSMGWIQIGYRTEGDKPSQHHHHHH
modifications: Adnectin
B5: 97 (protein)
chain: MGVSDVPRDLEVVAATPTSLLISWDAPAVTVHSYHIQYWPLGWYQRYQVFSVPGSKSTATISGLKPGVEYQIRVYAETRSGLADESFGWIQIGYRTEGDKPSQHHHHHH
modifications: Adnectin
B6: 98 (protein)
chain: MGVSDVPRDLEVVAATPTSLLISWDAPAVTVHSYHIQYWPLGSYQRYQVFSVPGSKSTATISGLKPGVEYQIRVYAETGGADSDQSMGWIQIGYRTEGDKPSQHHHHHH
modifications: Adnectin
B7: 107 (protein)
chain: MGVSDVPRDLEVVAATPTSLLISWDEHTDIYRYYRITYGETGGNSPVQEFTVPAMEHTATISGLKPGVDYTITVYAVTHVYPIMIHQYPISINYRTEIDKPSQHHHHHH
modifications: Adnectin
B8: 105 (protein)
chain: MASTSGEFYHTKYPYDLEVVAATPTSLEISWRSPTRDWQWFRITYGETGGNSPVQEFTVAGPYRNAIISGLKPGVDYTITVYADVYMPSEGGLVVDTYHPISINYRTEGSGSHHHHHH
modifications: Adnectin
B9: 103 (protein)
chain: MASTSGYTSYPIPYDLEVVAATPTSLYIHWYWIAATIISFRITYGETGGNSPVQEFTVPAGQDHATISGLKPGVDYTITVYAVHYEEEYSEFWTGHPISINYRTEGSGSHHHHHH
modifications: Adnectin
B10: 101 (protein)
chain: MASTSGSASYLIPSDLEVVAATPTSLSIYWYPVASTIINFRITYVETGGNSPVQEFTVPGSKSTATISGLKPGVDYTITVYAVHYEQKYSEYWIGHPISINYRTEGSGSHHHHHH
modifications: Adnectin
B11: 95 (protein)
chain: MASTSGVSDVPRDLEVVAATPTSLLISWDAPAVTVHSYHIQYWPLGWYQRYQVFSVPGSKSTATISGLKPEVEYQIRVYAETGGGGSQQSFGWIQIGYRTEGSGSHHHHHH
modifications: Adnectin
B12: 106 (protein)
chain: MASTSGQAYPEYYFVDLEVVAATPTSLLISWSKPYYNAYSYRITYGETGGNSPVQEFTVLGHDTRAVISGLKPGVDYTITVYAMFIEYIDQEIWHAHPISINYRTEGSGSHHHHHH
modifications: Adnectin
B13: 109 (protein)
chain: MGVSDVPRDLEVVAATPTSLLISWDYPTVTPRYYRITYGETGGNSPVQEFTVPEYIGTATISGLKPGVDYTITVYAVTNDTTIYSISRPISINYRTEIDKPSQHHHHHH
modifications: Adnectin
B14: 100 (protein)
chain: MASTSGSSSYLMPSDLEVVAATPTSLYIHWYPIASTIINFRITYGETGGNSPVQEFTVPGSQVHATISGLKPGVDYTITVYAVHYEHKYSELWMGHPISINYRTEGSGSHHHHHH
modifications: Adnectin
B15: 99 (protein)
chain: MGHHHHHHGGVSDVPRDLEVVAATPTSLLISWDAPAVTVHSYHIQYWPLGSYQRYQVFSVPGSKSTATISGLKPGVEYQIRVYAETGGADSDQSFGWIQIGYRTPES
modifications: Adnectin
B16: 113 (protein)
chain: MGHHHHHHGGVSDVPRDLEVVAATPTSLLISWDAPAVTVHSYHIQYWPLGSYQRYQVFSVPGSKSTATISGLKPGVEYQIRVYAETGRGESDQSFGWIQIGYRTPES
modifications: Adnectin
B17: 112 (protein)
chain: MGHHHHHHGGVSDVPRDLEVVAATPTSLLISWDAPAVTVHSYHIQYWPLGSYQRYQVFSVPGSKSTATISGLKPGVEYQIRVYAETGRGESDQSLGWIQIGYRTPES
modifications: Adnectin
B18: 111 (protein)
chain: MGHHHHHHGGVSDVPRDLEVVAATPTSLLISWDAPAVTVHSYHIQYWPLGSYQRYQVFSVPGSKSTATISGLKPGVEYQIRVYAETGRGESDQSFGWIQIGYRTEES
modifications: Adnectin
B19: 114 (protein)
chain: MGHHHHHHGGVSDVPRDLEVVAATPTSLLISWDAPAVTVHAYHIQYWPLGFYQGYQVFSVPGSKSTATISGLKPGVEYQIRVYAETGLGDAHQSLGWIQIGYRTPES
modifications: Adnectin
B20: 110 (protein)
chain: MGHHHHHHGGVSDVPRDLEVVAATPTSLLISWDAPAVTVHSYHIQYWPLGSYQRYQVFSVPGSKSTATISGLKPGVEYQIRVYAETGRGESDQSLGWIQIGYRTEES
modifications: Adnectin
B21: 364 (protein)
chain: MGHHHHHHGGSVSDVPRDLEVVAATPTSLLISWEYKVHPYRYYRITYGETGGNSPVQEFTVPSVLSTATISGLKPGVDYTITVYAVTYGDPSAPISINYRTEID
modifications: Adnectin
B22: 365 (protein)
chain: MGHHHHHHGGSVSDVPRDLEVVAATPTSLLISWEYKVSGYRYYRITYGETGGNSPVQEFTVPSVLSTATISGLKPGVDYTITVYAVTYGDDSAPISINYRTEID
modifications: Adnectin
B23: 366 (protein)
chain: MGHHHHHHGGSVSDVPRDLEVVAATPTSLLISWEYKVYHNRYYRITYGETGGNSPVQEFTVPSVLSTATISGLKPGVDYTITVYAVTYGDDSAPISINYRTEID
modifications: Adnectin
B24: 368 (protein)
chain: MGHHHHHHGGSVSDVPRDLEVVAATPTSLLISWEYKVHPYRYYRITYGETGGNSPVQEFTVPSVLSTATISGLKPGVDYTITVYAVTYGTDSAPISINYRTEID
modifications: Adnectin
B25: 367 (protein)
chain: MGHHHHHHGGSVSDVPRDLEVVAATPTSLLISWEYKVHPYRYYRITYGETGGNSPVQEFTVPSVLSSAQLSGLKPGVDYTITVYAVTYGDDSAPISINYRTEID
modifications: Adnectin

Each molecule was assayed on NL-Rluc virus (assay: Combinectin potency assay: antiviral EC50, NL-Rluc virus in MT-2 cells, luciferase readout). Conditions: Anti-CD4 Adnectin, Table 2.
Format: cell-based, HIV-1
Protocol: MT-2 cells, HEK 293T cells and the proviral DNA clone of […] were obtained from the NIH AIDS Research and Reference Reagent Program. MT-2 cells were propagated in RPMI 1640 medium supplemented with 10% heat-inactivated fetal bovine serum (FBS), 10 mM HEPES buffer pH 7.55, and 2 mM L-glutamine. HEK 293T cells were propagated in DMEM media supplemented with 10% heat-inactivated FBS, 10 mM HEPES buffer pH 7.55 and 2 mM L-glutamine. Recombinant NL-Rluc virus, in which a section of the nef gene from the proviral clone of NL4-3 was replaced with the Renilla luciferase gene, was constructed at Bristol-Myers Squibb. The replication-competent virus was harvested 3 days after transfection of HEK 293T cells with the modified pNL-Rluc proviral clone. Transfections were performed using Lipofectamine Plus (Invitrogen, Carlsbad, Calif.), according to manufacturer's instruction. Virus was titered in MT-2 cells using luciferase enzyme activity as a biomarker. The NL-Rluc virus used to infect MT-2 cells a multiplicity of 0.01 for 1 hour before adding to the peptides in 96-well plates. Peptides were serially diluted three-fold and 11 concentrations were plated in triplicate. After 4-5 days of incubation, cells were processed and quantitated for virus growth by the amount of expressed luciferase. Luciferase was quantitated using the Dual Luciferase kit from Promega (Madison, Wis.), with modifications to the manufacturer's protocol. The diluted Passive Lysis solution was pre-mixed with the re-suspended Luciferase Assay Reagent and then re-suspended in STOP & GLO® Substrate (2:1:1 ratio). A total of […] of the mixture was added to each aspirated well on assay plates and luciferase activity was measured immediately on a Wallac TriLux (Perkin-Elmer, Waltham, Mass.). The 50% effective concentration (EC50) was calculated by comparing the amount of luciferase produced in the presence of inhibitory peptide compared to wells where no peptide was added.

**Q.** How did the EC50 turn out when B1 was run?
**A.** 170 nM

**Q.** Which EC50 does the source give for B2 here?
**A.** > 5500 nM

**Q.** For B3, which EC50 is on record?
**A.** 500 nM

**Q.** How did the EC50 turn out when B4 was run?
**A.** 7.8 nM

**Q.** For B5, which EC50 is on record?
**A.** 11 nM

**Q.** With B6 as the molecule, how does the EC50 read?
**A.** 4.9 nM

**Q.** For B7, which EC50 is on record?
**A.** 500 nM

**Q.** Which EC50 does the source give for B8 here?
**A.** 300 nM

**Q.** How did the EC50 turn out when B9 was run?
**A.** 255 nM

**Q.** Which EC50 does the source give for B10 here?
**A.** > 400 nM

**Q.** For B11, which EC50 is on record?
**A.** 48 nM

**Q.** How did the EC50 turn out when B12 was run?
**A.** 2400 nM

**Q.** Which EC50 does the source give for B13 here?
**A.** 320 nM

**Q.** B14 was tested. Which EC50 did it give?
**A.** 6 nM

**Q.** For B15, which EC50 is on record?
**A.** 8.5 nM

**Q.** For B16, which EC50 is on record?
**A.** 15.4 nM

**Q.** For B17, which EC50 is on record?
**A.** 18.4 nM

**Q.** How did the EC50 turn out when B18 was run?
**A.** 20 nM

**Q.** With B19 as the molecule, how does the EC50 read?
**A.** 12.6 nM

**Q.** How did the EC50 turn out when B20 was run?
**A.** 28.6 nM

Same assay, conditions: Anti-N17 Adnectin, Table 3

**Q.** Which EC50 does the source give for B21 here?
**A.** 89 nM

**Q.** Which EC50 does the source give for B22 here?
**A.** > 1000 nM

**Q.** B23 was tested. Which EC50 did it give?
**A.** > 1000 nM

**Q.** How did the EC50 turn out when B24 was run?
**A.** 62 nM

**Q.** With B25 as the molecule, how does the EC50 read?
**A.** 300 nM
